Experimental data reported in article PMC11213338.

Columns and labels:
GST-γb = assay: GST pull-down; details: scale: relative anti-His band intensity
[1] = molecular target: BSMV virions (barley stripe mosaic virus (ND18 strain)); assay: immunogold labelling of purified virions (TEM); virions purified from infected leaves, adsorbed onto nickel grids, rabbit antiserum against the CRP 1:100 in BL buffer 2 h at room temperature, goat anti-rabbit 10 nm gold, TEM at 80 kV; also after 0.02 mM EDTA at 4°C for 12 h (fewer gold particles)
CP-His = CP-His (UniProt P04866); assay: GST pull-down; details: scale: relative anti-His band intensity
BSMV virions = assay: immunogold labeling with γb antibody, TEM; details: virions purified from infected N. benthamiana leaves at 5 dpi; n = 13; parent: est. 48; read off a plot
[2] = molecular target: γb protein of BSMV, expressed by the virus; assay: immunogold labeling with γb antibody, TEM; details: virions purified from infected N. benthamiana leaves at 5 dpi; n = 13; parent: est. 48; read off a plot
[3] = molecular target: γb-GFP-His (barley stripe mosaic virus (ND18 strain)); assay: MST; γb protein with 5 μM Zn^2+ in the buffer held constant, CP protein added as ligand; Monolith NT.115
[4] = molecular target: γb-GFP-His (barley stripe mosaic virus (ND18 strain)); assay: MST; γb-GFP-His held constant (10 μM), CP-His titrated from 20 μM; PBS with 0.1% Tween 20, 25°C, 20% LED-power, 40% MST-power, Monolith NT.115; no Zn^2+ added
[5] = molecular target: GST-γb (barley stripe mosaic virus (ND18 strain)); assay: pull-down; GST pull-down: purified GST-tag protein with His-tag protein in 50 mM Tris-HCl pH 6.8, 500 mM NaCl, 1.5% glycerol, 0.6% Triton-X 100, 0.1% Tween 20, 3 h at 4°C; with or without 10 μg RNaseA, Zn^2+ 2-200 μM, 20 μM other divalent cations, or EDTA (200 μM in Fig 4D and 4E); blots with anti-GST or anti-His
[6] = molecular target: γb-GFP-His (barley stripe mosaic virus (ND18 strain)); assay: MST; γb-GFP-His held constant (10 μM), CP-His titrated from 20 μM; PBS with 0.1% Tween 20, 25°C, 20% LED-power, 40% MST-power, Monolith NT.115; no Zn^2+ added; remark: listed apart in the source

Molecule: CP-His (from UniProt P04866) H13A
- response (GST-γb; EDTA (200 μM), parent: 0.05): 0.04
- response (GST-γb; no EDTA, parent: 1.00): 0.11

Molecule: γb protein of BSMV, expressed by the virus (natural protein)
- percent of virions labelled with gold particles (γb antibody) [1]: 50.9%

Molecule: GST-γb H85A
- response (CP-His; EDTA (200 μM), parent: 0.20): 0.23
- response (CP-His; no EDTA, parent: 1.00): 0.21

Molecule: γb protein of BSMV, expressed by the virus H85A
- response (BSMV virions): 8%

Molecule: BSMV virions H13A
- response [2]: 3%

B1: CP-His (natural protein)
chain: MPNVSLTAKGGGHYIEDQWDTQVVEAGVFDDWWVHVEAWNKFLDNLRGINFSVASSRSQVAEYLAALDRDLPADVDRRFAGARGQIGSPNYLPAPKFFRLDKRTIAELTRLSRLTDQPHNNRDIELNRAKRATTNPSPPAQAPSENLTLRDVQPLKDSALHYQYVLIDLQSARLPVYTRKTFERELALEWIIPDAEEA
- Kd [3]: 150 nM
- Kd [4]: 460 nM
- fold reduction of the pull-down with 200 μM EDTA [5]: 5 fold
- Kd [6]: 630 nM
